Assay results from PMC7723274.
No end group written: not given here.

Legend:
[1] = molecular target: HAdV-5 virion (E1/E3-deleted, replication-defective HAdV-5 vector with an eGFP cassette) (human adenovirus 5 (HAdV-5)) (UniProt P04133)
[2] = molecular target: hexon HVR1 chimera virion (HAdV-5 with hexon HVR1 replaced by that of HAdV-64) (human adenovirus 5 (HAdV-5) | human adenovirus 64 (HAdV-64)) (UniProt P04133); assay: co-sedimentation; 2.5 μg purified virus with 20 μM HD5 in 150 mM NaCl, 20 mM Tris, 5% glycerol, 1 mM MgCl2, on ice 45 min; discontinuous Histodenz gradient, 4°C, virus band collected; SDS-PAGE, fluorescent stain; HD5 normalised to proteins V and VII and read against a standard curve
[3] = molecular target: C4 vertex chimera virion (HAdV-5 with penton base residues 288 to 571 from HAdV-64 and the DTET to GYAR mutation in fiber) (human adenovirus 5 (HAdV-5) | human adenovirus 64 (HAdV-64)) (UniProt P04133); assay: as above
[4] = molecular target: HAdV-64 virion (E3 deleted, replication-competent HAdV-64 virus containing a CMV-eGFP ORF, WT HAdV-64 capsid) (human adenovirus 64 (HAdV-64)); assay: as above
[5] = molecular target: HAdV-5 virion (E1/E3-deleted, replication-defective HAdV-5 vector with an eGFP cassette) (human adenovirus 5 (HAdV-5)) (UniProt P04133); assay: as above
[6] = molecular target: HAdV-64 virion (E3 deleted, replication-competent HAdV-64 virus containing a CMV-eGFP ORF, WT HAdV-64 capsid) (human adenovirus 64 (HAdV-64))
[7] = molecular target: hexon HVR1 chimera virion (HAdV-5 with hexon HVR1 replaced by that of HAdV-64) (human adenovirus 5 (HAdV-5) | human adenovirus 64 (HAdV-64)) (UniProt P04133)
[8] = molecular target: C4 vertex chimera virion (HAdV-5 with penton base residues 288 to 571 from HAdV-64 and the DTET to GYAR mutation in fiber) (human adenovirus 5 (HAdV-5) | human adenovirus 64 (HAdV-64)) (UniProt P04133)
[9] = molecular target: hexon HVR1/C4 vertex chimera virion (C4 chimera with hexon HVR1 replaced by that of HAdV-64) (human adenovirus 5 (HAdV-5) | human adenovirus 64 (HAdV-64)) (UniProt P04133)
[10] = molecular target: HAdV-5 virion (E1/E3-deleted, replication-defective HAdV-5 vector with an eGFP cassette) (human adenovirus 5 (HAdV-5)) (UniProt P04133); remark: listed apart in the source
[11] = molecular target: hexon HVR1 chimera virion (HAdV-5 with hexon HVR1 replaced by that of HAdV-64) (human adenovirus 5 (HAdV-5) | human adenovirus 64 (HAdV-64)) (UniProt P04133); remark: listed apart in the source

Binder: ATCYCRTGRCATRESLSGVCEISGRLYRLCCR (not fully specified; cysteine pairing not given here) [Human defensin 5]
- binding of AF488-labeled virus to A549 cells after pre-incubation with 2.5, 5 and 10 μM HD5, fold change in GMF against no HD5 [1]: 1.4 to 2.1 fold
- fold less HD5 bound per virion than to HAdV-5 (fold less than HAdV-5) [2]: 5
- fold more HD5 bound per virion than to HAdV-5 (fold more than HAdV-5) [3]: 2.3
- fold less HD5 bound per virion than to HAdV-5 (fold less than HAdV-5) [4]: 83
- stoichiometry N (molecules of HD5 per virion) [5]: 7090
- infectivity on A549 cells of virus incubated with 5 μM or 10 μM HD5 (protocol 1) [6]: 4 to 5 fold
- HD5 concentration at which 50% of fiber stays capsid-associated after heating to 48°C, against HAdV-5 (fully associated at 20 μM HD5) (fold higher than HAdV-5) [7]: > 2
- HD5 concentration at which 50% of fiber stays capsid-associated after heating to 49.3°C (fully associated at 20 μM HD5) [8]: 5 µM
- HD5 concentration at which 50% of fiber stays capsid-associated after heating to 49.3°C, against HAdV-5 (fully associated at 20 μM HD5) (fold lower than HAdV-5) [9]: 2
- HD5 concentration at which 50% of fiber stays capsid-associated after heating to 48°C (fully associated at 20 μM HD5) [10]: 5 µM
- HD5 IC50 of infection on A549 cells, against HAdV-5 (fold over HAdV-5) [11]: 5
